Columns and labels:
Conditions in all cases: tags: endogenous on Ramos Burkitt's lymphoma cells; label: 5' FITC or Cy3; stem-loop hairpin
[1] = molecular target: T1, membrane-bound IgM (mIgM, immunoglobulin heavy mu chain of B-cell receptor) (Homo sapiens, UniProt P01871 P01871:1-474); test: flow; Bmax/2 on Ramos cells, 4 C, 5 mM MgCl2
Experimental: (§1) All the in vitro experiments were done using a binding buffer composed of RPMI 1640 and 4.5 g/L glucose (Sigma-Aldrich) and 5 mM MgCl₂ for monomers, 20 mM MgCl₂ for multimers (Sigma-Aldrich), 100 mg/L tRNA (Sigma-Aldrich), 100 mg/L single stranded DNA (Sigma-Aldrich), 100 mg/L BSA (Sigma-Aldrich) and binding was analyzed for binding using flow cytometry in binding buffer (Acurri C6) using binding buffer. We used 20 mM Mg⁺² for optimal for the folding of the aptamer in vitro and 5 mM Mg⁺² for experiments in vivo. The binding buffer consists of tRNA and single stranded DNA that are capable of scavenging Mg⁺² thereby reducing the effective concentration of Mg ions. […]
(§2) Cell Binding Assays. Affinity of each construct was evaluated by incubating Ramos cells (2.5×10⁵) with a series of FITC or Cy3 labeled constructs in a 50 μL of binding buffer on ice for 45 min Cells were then washed with lmL of wash buffer at 4° C. and resuspended in 100 μL of wash buffer. The binding of the constructs was analyzed using flow cytometry by counting 10,000 events for each concentration. […] Binding at respective concentrations and absolute fluorescence intensity difference was used for the binding curves. When calculating the relative binding constant, binding curves were fitted with median fluorescence intensity observed for each histogram and observed Bmax/2 was used as the binding constant. […]

[2] = molecular target: T1, membrane-bound IgM (mIgM, …); test: flow; Bmax/2 on Ramos cells, 4 C
Experimental: as §1, §2

[3] = molecular target: T1, membrane-bound IgM (mIgM, …); test: flow; Bmax/2 (Kd') on Ramos cells, 4 C, 5 mM MgCl2
Experimental: as §1, §2

T1 sequence (P01871 whole entry, one chain of several): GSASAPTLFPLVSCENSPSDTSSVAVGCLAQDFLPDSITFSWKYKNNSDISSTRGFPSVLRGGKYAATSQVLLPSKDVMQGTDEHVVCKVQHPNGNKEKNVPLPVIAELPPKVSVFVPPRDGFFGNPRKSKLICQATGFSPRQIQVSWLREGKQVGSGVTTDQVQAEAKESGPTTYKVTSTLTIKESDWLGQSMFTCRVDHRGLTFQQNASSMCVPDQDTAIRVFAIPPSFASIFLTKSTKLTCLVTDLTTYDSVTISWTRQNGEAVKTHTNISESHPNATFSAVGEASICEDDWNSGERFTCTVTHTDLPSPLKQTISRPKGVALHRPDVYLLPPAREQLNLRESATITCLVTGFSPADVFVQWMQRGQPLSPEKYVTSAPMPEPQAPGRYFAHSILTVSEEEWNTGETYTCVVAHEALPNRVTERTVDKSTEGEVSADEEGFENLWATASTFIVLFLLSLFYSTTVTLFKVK

Binder	Kd [1]	also measured
CGTGGAGGATAGTTCGGTGGCTTCAGGGTCTCCTCCCG (ssDNA) [TD05.7]	148 nM	–
AGGAGGATAGTTCGGTGGCTGTTCAGGGTCTCCTCCT (ssDNA) [TD05.1]	53 nM	–
AGGAGGATAGTTCGGTGGCTGTTCAGGGTCTCCTCCT (ssDNA, LNA at last four nucleotides (3' stem pyrimidines TCCT) [34,35,36,37 (LNA)]) [TD05.17]	–	Kd [2]: 43 nM
ACCGTGGAGGATAGTTCGGTGGCTGTTCAGGGTCTCCTCCACGGT (ssDNA) [TD05]	–	Kd [3]: 359 nM

From patent US20120225088, “COMPOSITIONS AND METHODS FOR TREATING CANCER AND OTHER DISEASES” (published 2012)
